{
  "source": "paper PMC11880201",
  "about": "(Nature Communications, 2025)",
  "binders": {"B1": {"name": "FITC-labeled INSM1 ZF1 (domain or fragment)", "chain": "not shown", "modifications": "FITC label (FITC rapid labeling kit), site not stated"}},
  "target": "TEAD (residue 28-104) of TEAD1 (UniProt P28347 28-104)",
  "sequence (P28347 28-104)": "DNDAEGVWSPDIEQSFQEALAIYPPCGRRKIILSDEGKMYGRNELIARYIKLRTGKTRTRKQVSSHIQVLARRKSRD",
  "experiment": "fluorescence polarisation",
  "data": [
    {"binder": "B1", "values": [
      {"measurement": "Kd", "value": 39.5, "unit": "nM"}
    ]}
  ]
}
